Results from patent publication US7994133B2, “Isozyme-specific antagonists of protein kinase C” (The Board of Trustees of the Leland Stanford Junior …, priority 2003, dated 2011).

Tests used:
Format in all cases: cell-based
CHO cells [1] = experiment: Real-time confocal imaging of PMA-induced εPKC translocation with mathematical modeling; details: for time after PMA stimulation at which the enzyme was found at the cell periphery: YFP-εPKC D(86)A and CFP-εPKC Wt co-transfected in the same cell; for C3 / C5 / C1: constant of bi-exponential fit; for C1: level of εPKC in the cytosol at steady state; for k − 2: rate of detachment from the membrane; for k1 = C5: rate of εPKC opening in the cytosol
Experimental: (§1) CHO cells were grown on glass coverslips, and serum-starved as described in Example 4. For each experiment, cells were transferred to a commercially available metal coverslip holder (Molecular Probes) in which the coverslip formed the bottom of a 1 ml bath. The media was then replaced with extracellular buffer (120 mM NaCl, 5 mM KCl, 1.5 mM CaCl2, 1.5 mM MgCl2, 20 mM HEPES and 30 mM glucose). Cells were stimulated by either PMA (100 nM), or with ATP (1 mM) in extracellular buffer. Fluorescence images of GFP-tagged constructs were obtained using the 488 nm excitation line of a laser scanning confocal microscope (Pascal, Zeiss) and emission was collected through a 505-550 nm band pass filter. Cells were imaged on the stage of an inverted microscope (Axiovert 100M) using a 40× Zeiss Plan-apo oil immersion objective with 1.2 numerical aperture (NA). For dual color imaging of CFP and YFP fusion proteins, a spinning disk Nipkow confocal microscope was used. Cells were viewed using an inverted Olympus IX70 microscope with a 40× oil immersion Olympus objective (1.35NA) and images were acquired with a CCD camera (Hamamatsu) and 2×2 pixel binning. CFP was excited with the 442 nm laser line of a helium-cadmium laser (Kimmon) whereas YFP was imaged with the 514 nm line of an argon ion laser (Melles-Griot). To selectively photobleach YFP labeled proteins in local regions of the cytoplasm for FRAP experiments, the 514 nm line of an Enterprise laser (Coherent) at maximal power (˜400 mW) was used. For these experiments, a 60× oil immersion objective was used (1.4NA). Under these conditions, and by placing an iris in the beam path, it was possible to bleach 80% of the YFP fluorescence in 500 ms in an area of the cytosol measuring approximately 35 um2. Real time confocal images were acquired every 10-15 seconds for 20 minutes for experiments utilizing PMA, and every 5 seconds for a total duration of 3 minutes in the case of cells stimulated with ATP. Reagents were added to the cell chamber after the fifth image in each time series. […] All images were acquired at room temperature. Images were exported as 12 or 16 bit files and changes in fluorescence intensity were measured using MetaMorph® data analysis software (Universal Imaging Corp.). To monitor the translocation of PKC, a small region of interest was selected in the cytosol of each cell and fluorescence intensity values graphed against time after subtraction of background values and normalized so that the initial fluorescence was 100%. Averages of 10-15 cells from three independent experiments were used. To determine statistical significance, a 1 tail type 2 T-test (Microsoft excel) was used.
Mathematical modeling was obtained from data of cells expressing similar levels of the different εPKC ΨεRACK mutants. Non-linear least squares curve fitting analysis was performed using the EViews software (QMS) and differential equation analysis was performed using Berkeley Madonna™. All other methods for this Example were performed as described, for example, in Examples 4 and 6.
Fluorescence time courses were analyzed by a non-linear regression analysis with single and biexponential equations (1 and 2) as previously done by Nalefski and Newton Nalefski, E. A. & Newton, A. C., Biochemistry 40:13216-13229 (2001)], where I(t) is the concentration of observed molecules in the cytosol at time (t), and C1-5 are constants. I(t)=C1+C2e^(−C3(t)) 1. I(t)=C1+C2e^(−C3(t))+C4e^(−C5(t)) 2. Residual error graphs obtained using single exponential equations (FIG. 8A) and using biexponential equations (FIG. 8B) for the D(86)A εPKC mutant translocation process is shown in FIGS. 8A-8D. […] This process can be described as follows:
The value of C1 corresponds to the level of εPKC in the cytosol at steady state. It was next determined whether the hypothesis that the values obtained for C1 and C3 of D(86)A and Wt εPKCs are statistically equivalent. […]

[2] = Fluorescence recovery after photobleaching (FRAP) of cytoplasmic εPKCs; details: average of at least 10 cells
Experimental: CHO cells were grown on glass coverslips, and serum-starved as described in Example 4. For each experiment, cells were transferred to a commercially available metal coverslip holder (Molecular Probes) in which the coverslip formed the bottom of a 1 ml bath. The media was then replaced with extracellular buffer (120 mM NaCl, 5 mM KCl, 1.5 mM CaCl2, 1.5 mM MgCl2, 20 mM HEPES and 30 mM glucose). Cells were stimulated by either PMA (100 nM), or with ATP (1 mM) in extracellular buffer. Fluorescence images of GFP-tagged constructs were obtained using the 488 nm excitation line of a laser scanning confocal microscope (Pascal, Zeiss) and emission was collected through a 505-550 nm band pass filter. Cells were imaged on the stage of an inverted microscope (Axiovert 100M) using a 40× Zeiss Plan-apo oil immersion objective with 1.2 numerical aperture (NA). For dual color imaging of CFP and YFP fusion proteins, a spinning disk Nipkow confocal microscope was used. Cells were viewed using an inverted Olympus IX70 microscope with a 40× oil immersion Olympus objective (1.35NA) and images were acquired with a CCD camera (Hamamatsu) and 2×2 pixel binning. […] Under these conditions, and by placing an iris in the beam path, it was possible to bleach 80% of the YFP fluorescence in 500 ms in an area of the cytosol measuring approximately 35 um2. […] Images were exported as 12 or 16 bit files and changes in fluorescence intensity were measured using MetaMorph® data analysis software (Universal Imaging Corp.). To monitor the translocation of PKC, a small region of interest was selected in the cytosol of each cell and fluorescence intensity values graphed against time after subtraction of background values and normalized so that the initial fluorescence was 100%. […]
Different translocation rates may reflect differences in overall mobility (diffusion) of the εPKCs in cells. Therefore, fluorescence recovery after photobleaching (FRAP) of the cytoplasmic enzyme was measured; mobility of εPKCs was measured by monitoring the time required for the fluorescence to recover in a bleached region. […]

CHO cells [3] = experiment: Real-time confocal imaging of ATP-induced εPKC translocation; details: 1 mM ATP; for time after stimulation at which translocation was apparent: GFP fusion
Experimental: as §1
It was next determined whether differences in translocation rates of the different εPKCs were also observed when translocation was stimulated via receptor signaling rather than by PMA. ATP has been previously used to activate PKC in CHO cells by stimulating purinergic G protein-coupled receptors [Maasch, C. et al., FASEB J. 14:1653-1663 (2000)]. All methods for this Example were performed as described, for example, in Examples 4, 6 and 7.

[4] = rate of closing in the cytosol, assumed negligible
[5] = rate of εPKC binding to the membrane, calculated with k-1 negligible

B1: D(86)A: εPKC mutant wherein D at position 86 of ΨεRACK on εPKC is substituted with an A (protein)
chain: MVVFNGLLKIKICEAVSLKPTAWSLRHAVGPRPATFLLDPYIALNVDDSRIGQTATKQKTNSPAWHDEFVTDVCNGRKIELAVFHAAPIGYDDFVANCTIQFEELLQNGSRHFEDWIDLEPEGRVYVIIDLSGSSGEAPKDNEERVFRERMRPRKRQGAVRRRVHQVNGHKFMATYLRQPTYCSHCRDFIWGVIGKQGYQCQVCTCVVHKRCHELIITKCAGLKKQETPDQVGSQRFSVNMPHKFGIHNYKVPTFCDHCGSLLWGLLRQGLQCKVCKMNVHRRCETNVAPNCGVDARGIAKVLADLGVTPDKITNSGQRRKKLIAGAESPQPASGGSPSEEDRSKSAPTSPCDQEIKELENNIRKALSFDNRGEEHRAASSPDGQLMSPGENGEVRQGQAKRLGLDEFNFIKVLGKGSFGKVMLAELKGKDEVYAVKVLKKDVILQDDDVDCTMTEKRILALARKHPYLTQLYCCFQTKDRLFFVMEYVNGGDLMFQIQRSRKFDEPRSRFYAAEVTSALMFLHQHGVIYRDLKLDNILLDAEGHCKLADFGMCKEGILNGVTTTTFCGTPDYIAPEILQELEYGPSVDWWALGVLMYEMMAGQPPFEADNEDDLFESILHDDVLYPVWLSKEAVSILKAFMTKNPHKRLGCVASQNGEDAIKQHPFFKEIDWVLLEQKKIKPPFKPRIKTKRDVNNFDQDFTREEPVLTLVDEAIVKQINQEEFKGFSYFGEDLMP
rate of translocation (decrease of fluorescence in the cytoplasm) (CHO cells [1]; 100 nM PMA, GFP fusion): faster rate
time at which translocation to the cell periphery became apparent (CHO cells [1]; 100 nM PMA, GFP fusion): within one minute
time after PMA stimulation at which the enzyme was found at the cell periphery (CHO cells [1]; 100 nM PMA): 1.5 min
(k2 + k − 2) = C3 (CHO cells [1]; calculated with k-1 negligible): 0.016 ± 0.001
k − 2/(k2 + k − 2) = C1/100 (CHO cells [1]; calculated with k-1 negligible): 0.306 ± 0.002
C3 (CHO cells [1]; 100 nM PMA): 0.016 ± 0.001
C5 (CHO cells [1]; 100 nM PMA): 0.040 ± 0.007
C1 (CHO cells [1]; 100 nM PMA): 30.59 ± 0.286
k − 1 (CHO cells [1]; [4]): ~0
k − 2 (CHO cells [1]; calculated with k-1 negligible): 0.005 ± 0.0004
k2 (CHO cells [1]; [5]): 0.011 ± 0.003
k1 = C5 (CHO cells [1]; calculated with k-1 negligible): 0.040 ± 0.007
time to fifty percent FRAP [2]: 9.2 ± 1.1 s
time after stimulation at which translocation was apparent (CHO cells [3]): 10 s

B2: Wt: wild type εPKC, human construct (protein)
chain: MVVFNGLLKIKICEAVSLKPTAWSLRHAVGPRPATFLLDPYIALNVDDSRIGQTATKQKTNSPAWHDEFVTDVCNGRKIELAVFHDAPIGYDDFVANCTIQFEELLQNGSRHFEDWIDLEPEGRVYVIIDLSGSSGEAPKDNEERVFRERMRPRKRQGAVRRRVHQVNGHKFMATYLRQPTYCSHCRDFIWGVIGKQGYQCQVCTCVVHKRCHELIITKCAGLKKQETPDQVGSQRFSVNMPHKFGIHNYKVPTFCDHCGSLLWGLLRQGLQCKVCKMNVHRRCETNVAPNCGVDARGIAKVLADLGVTPDKITNSGQRRKKLIAGAESPQPASGGSPSEEDRSKSAPTSPCDQEIKELENNIRKALSFDNRGEEHRAASSPDGQLMSPGENGEVRQGQAKRLGLDEFNFIKVLGKGSFGKVMLAELKGKDEVYAVKVLKKDVILQDDDVDCTMTEKRILALARKHPYLTQLYCCFQTKDRLFFVMEYVNGGDLMFQIQRSRKFDEPRSRFYAAEVTSALMFLHQHGVIYRDLKLDNILLDAEGHCKLADFGMCKEGILNGVTTTTFCGTPDYIAPEILQELEYGPSVDWWALGVLMYEMMAGQPPFEADNEDDLFESILHDDVLYPVWLSKEAVSILKAFMTKNPHKRLGCVASQNGEDAIKQHPFFKEIDWVLLEQKKIKPPFKPRIKTKRDVNNFDQDFTREEPVLTLVDEAIVKQINQEEFKGFSYFGEDLMP
rate of translocation (decrease of fluorescence in the cytoplasm) (CHO cells [1]; 100 nM PMA, GFP fusion): slower rate
time at which translocation to the cell periphery became apparent (CHO cells [1]; 100 nM PMA, GFP fusion): 2 to 3 min
time after PMA stimulation at which the enzyme was found at the cell periphery (CHO cells [1]; 100 nM PMA): > 10 min
(k2 + k − 2) = C3 (CHO cells [1]; calculated with k-1 negligible): 0.016 ± 0.004
k − 2/(k2 + k − 2) = C1/100 (CHO cells [1]; calculated with k-1 negligible): 0.305 ± 0.010
C3 (CHO cells [1]; 100 nM PMA): 0.016 ± 0.004
C5 (CHO cells [1]; 100 nM PMA): 0.009 ± 0.001
C1 (CHO cells [1]; 100 nM PMA): 30.46 ± 0.991
k − 1 (CHO cells [1]; [4]): ~0
k − 2 (CHO cells [1]; calculated with k-1 negligible): 0.005 ± 0.0011
k2 (CHO cells [1]; [5]): 0.011 ± 0.002
k1 = C5 (CHO cells [1]; calculated with k-1 negligible): 0.009 ± 0.001
time to fifty percent FRAP [2]: 9.0 ± 1.2 s
time after stimulation at which translocation was apparent (CHO cells [3]): 10 s

B3: D(86)N: εPKC mutant wherein D at position 86 of ΨεRACK in εPKC is substituted with an N (protein)
chain: MVVFNGLLKIKICEAVSLKPTAWSLRHAVGPRPATFLLDPYIALNVDDSRIGQTATKQKTNSPAWHDEFVTDVCNGRKIELAVFHNAPIGYDDFVANCTIQFEELLQNGSRHFEDWIDLEPEGRVYVIIDLSGSSGEAPKDNEERVFRERMRPRKRQGAVRRRVHQVNGHKFMATYLRQPTYCSHCRDFIWGVIGKQGYQCQVCTCVVHKRCHELIITKCAGLKKQETPDQVGSQRFSVNMPHKFGIHNYKVPTFCDHCGSLLWGLLRQGLQCKVCKMNVHRRCETNVAPNCGVDARGIAKVLADLGVTPDKITNSGQRRKKLIAGAESPQPASGGSPSEEDRSKSAPTSPCDQEIKELENNIRKALSFDNRGEEHRAASSPDGQLMSPGENGEVRQGQAKRLGLDEFNFIKVLGKGSFGKVMLAELKGKDEVYAVKVLKKDVILQDDDVDCTMTEKRILALARKHPYLTQLYCCFQTKDRLFFVMEYVNGGDLMFQIQRSRKFDEPRSRFYAAEVTSALMFLHQHGVIYRDLKLDNILLDAEGHCKLADFGMCKEGILNGVTTTTFCGTPDYIAPEILQELEYGPSVDWWALGVLMYEMMAGQPPFEADNEDDLFESILHDDVLYPVWLSKEAVSILKAFMTKNPHKRLGCVASQNGEDAIKQHPFFKEIDWVLLEQKKIKPPFKPRIKTKRDVNNFDQDFTREEPVLTLVDEAIVKQINQEEFKGFSYFGEDLMP
steady state level of fluorescence in the cytoplasm (CHO cells [1]; 100 nM PMA, GFP fusion): higher level
time at which translocation to the cell periphery became apparent (CHO cells [1]; 100 nM PMA, GFP fusion): 5 min
C3 (CHO cells [1]; 100 nM PMA): 0.010 ± 0.0003
C5 (CHO cells [1]; 100 nM PMA): 0.034 ± 0.004
C1 (CHO cells [1]; 100 nM PMA): 38.38 ± 0.254
k2 (CHO cells [1]; rate of binding to the membrane, simulations using differential equations): 0.01138
k − 1 (CHO cells [1]; rate of closing, simulations using differential equations): 0.005
k − 2 (CHO cells [1]; simulations using differential equations): 0.0052
k1 (CHO cells [1]; rate of opening, simulations using differential equations, k1 = C5 not valid): 0.0135
time to fifty percent FRAP [2]: 9.1 ± 1.6 s
steady state level compared with D(86)A or Wt (CHO cells [3]): significantly higher levels
translocation rate in comparison to wild type (CHO cells [3]): slower translocation rate
time after stimulation at which translocation was apparent (CHO cells [3]): 40 s
